± gives the standard deviation of the averaged measurements.
Legend:
[1] = tested on: Saccharomyces cerevisiae; assay: protein stability index of tFT-peptide fusion (C-terminal peptide) (PSI (0-1 scale)); higher = more stable (slower turnover); settings: genetic background: wild type; temperature: 30 C
[2] = tested on: Saccharomyces cerevisiae; assay: as above
Experimental: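 MPS profiling in S. cerevisiae of the tFT-X12 degron library: putative degron peptides plus stable controls, 12 aa, fused to the C-terminus of a sfGFP-mCherry timer. Cells are FACS-sorted into 8 mCherry/sfGFP bins and deep-sequenced. PSI runs from 0 (unstable) to 1 (stable). Backgrounds are wild type, das1Δ and doa10Δ at 30 °C, and wild type, das1Δ, cdc34-1 and cdc53-1 at 37 °C; 2-3 technical replicates each.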

[3] = genetic background: cdc34-1, temperature: 37 C
[4] = genetic background: cdc53-1, temperature: 37 C
[5] = genetic background: das1 deletion, temperature: 30 C
[6] = genetic background: das1 deletion, temperature: 37 C
[7] = genetic background: doa10 deletion, temperature: 30 C
[8] = genetic background: wild type, temperature: 30 C
[9] = genetic background: wild type, temperature: 37 C
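Further: PSI is a weighted mean of sequencing reads over stability bins, variants kept only with over 10 reads, mCherry proximal and sfGFP distal, peptide attached via GGGS linker.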

| Sequence | protein stability index [1] | protein stability index [2, 3] | protein stability index [2, 4] | protein stability index [2, 5] | protein stability index [2, 6] | protein stability index [2, 7] | protein stability index [2, 8] | protein stability index [2, 9] |
| --- | --- | --- | --- | --- | --- | --- | --- | --- |
| GIKLNVVYILLG | 0.482 ± 0.072 | 0.486 ± 0.045 | 0.544 ± 0.025 | 0.377 ± 0.03 | 0.644 ± 0.017 | 0.34 ± 0.041 | 0.35 ± 0.05 | 0.536 ± 0.0097 |
| GKHILLISLNIT | 0.351 ± 0.0065 | 0.281 ± 0.024 | 0.395 ± 0.067 | 0.252 ± 0.045 | 0.5 ± 0.013 | 0.246 ± 0.022 | 0.251 ± 0.046 | 0.455 ± 0.02 |
| GKVSSFVLFHIS | 0.301 ± 0.013 | 0.649 ± 0.039 | 0.761 ± 0.033 | 0.622 ± 0.031 | 0.7502 ± 0.0042 | 0.202 ± 0.024 | 0.234 ± 0.021 | 0.475 ± 0.0066 |
| GLAVLSWLYIEL | 0.487 ± 0.013 | 0.557 ± 0.022 | 0.57162 ± 0.00039 | 0.457 ± 0.031 | 0.598 ± 0.013 | 0.445 ± 0.019 | 0.461 ± 0.014 | 0.57036 ± 0.0001 |
| GLCFRVCIWVFV | 0.195 ± 0.041 | 0.176 ± 0.0029 | 0.284 ± 0.024 | 0.206 ± 0.025 | 0.364 ± 0.0058 | 0.103 ± 0.016 | 0.125 ± 0.025 | 0.218 ± 0.0086 |
| GLGWLLFVVERV | 0.453 ± 0.032 | 0.457 ± 0.019 | 0.499 ± 0.046 | 0.359 ± 0.037 | 0.552 ± 0.011 | 0.34 ± 0.018 | 0.345 ± 0.025 | 0.511 ± 0.027 |
| GLSLLLLWFKVC | 0.169 ± 0.017 | 0.174 ± 0.0095 | 0.36 ± 0.0093 | 0.307 ± 0.027 | 0.463 ± 0.014 | 0.0902 ± 0.0054 | 0.104 ± 0.025 | 0.0839 ± 0.013 |
| GLSVFFFVGFIF | 0.418 ± 0.047 | 0.38 ± 0.091 | 0.452 ± 0.033 | 0.339 ± 0.022 | 0.526 ± 0.021 | 0.306 ± 0.017 | 0.322 ± 0.02 | 0.521 ± 0.031 |
| GLVSCWIDPSMA | 0.714 ± 0.04 | 0.697 ± 0.0081 | 0.77 ± 0.032 | 0.635 ± 0.0088 | 0.73 ± 0.025 | 0.597 ± 0.021 | 0.628 ± 0.03 | 0.708 ± 0.023 |
| GPCRPWIVVYAG | 0.475 ± 0.066 | 0.566 ± 0.036 | 0.595 ± 0.042 | 0.357 ± 0.034 | 0.5831 ± 0.0018 | 0.295 ± 0.022 | 0.333 ± 0.018 | 0.512 ± 0.0063 |
| GPWVIFSHLLLT | 0.404 ± 0.023 | 0.459 ± 0.037 | 0.49 ± 0.017 | 0.405 ± 0.017 | 0.546 ± 0.013 | 0.258 ± 0.0084 | 0.249 ± 0.02 | 0.3963 ± 0.0027 |
| GRFGVGVVFRLA | 0.456 ± 0.043 | 0.669 ± 0.038 | 0.72 ± 0.016 | 0.637 ± 0.028 | 0.719 ± 0.01 | 0.347 ± 0.032 | 0.393 ± 0.027 | 0.6096 ± 0.0043 |
| GRGRGGRWGRLC | 0.269 ± 0.05 | 0.642 ± 0.05 | 0.739 ± 0.016 | 0.646 ± 0.0085 | 0.75048 ± 0.00029 | 0.201 ± 0.023 | 0.215 ± 0.024 | 0.476 ± 0.023 |
| GRLRLGVLCGGV | 0.529 ± 0.045 | 0.611 ± 0.016 | 0.661 ± 0.014 | 0.469 ± 0.021 | 0.655 ± 0.018 | 0.454 ± 0.0071 | 0.472 ± 0.013 | 0.634 ± 0.017 |
| GRVFSSFFLYIS | 0.0831 ± 0.0098 | 0.051 ± 0.02 | 0.0556 ± 0.0033 | 0.112 ± 0.011 | 0.184 ± 0.011 | 0.14 ± 0.0057 | 0.0543 ± 0.017 | 0.0883 ± 0.017 |
| GRVYLLGLYMSF | 0.373 ± 0.0094 | 0.453 ± 0.041 | 0.485 ± 0.026 | 0.306 ± 0.083 | 0.525 ± 0.064 | 0.3887 ± 0.0029 | 0.338 ± 0.026 | 0.481 ± 0.037 |
| GSLGHCWFLFGV | 0.463 ± 0.016 | 0.59 ± 0.038 | 0.538 ± 0.011 | 0.539 ± 0.022 | 0.461 ± 0.0075 | 0.556 ± 0.064 | 0.538 ± 0.0098 | 0.475 ± 0.021 |
| GSLHVISVVGML | 0.52 ± 0.034 | 0.696 ± 0.012 | 0.709 ± 0.019 | 0.592 ± 0.016 | 0.695 ± 0.018 | 0.393 ± 0.0045 | 0.439 ± 0.018 | 0.595 ± 0.014 |
| GSVLWISCLIFC | 0.3 ± 0.026 | 0.157 ± 0.019 | 0.267 ± 0.0085 | 0.189 ± 0.035 | 0.349 ± 0.0061 | 0.1641 ± 0.0013 | 0.18 ± 0.027 | 0.347 ± 0.038 |
| GTHWARLGWLLA | 0.227 ± 0.11 | 0.607 ± 0.03 | 0.711 ± 0.036 | 0.619 ± 0.019 | 0.724 ± 0.022 | 0.161 ± 0.0026 | 0.176 ± 0.023 | 0.379 ± 0.033 |

| Sequence | protein stability index [1] | protein stability index [2, 3] | protein stability index [2, 4] | protein stability index [2, 5] | protein stability index [2, 6] | protein stability index [2, 7] | protein stability index [2, 8] | protein stability index [2, 9] |
| --- | --- | --- | --- | --- | --- | --- | --- | --- |
| GVAFGLLVWLLG | 0.378 ± 0.071 | 0.432 ± 0.021 | 0.509 ± 0.014 | 0.357 ± 0.026 | 0.5307 ± 0.0018 | 0.304 ± 0.02 | 0.326 ± 0.033 | 0.484 ± 0.0068 |
| GVGAISLGFSWL | 0.717 ± 0.013 | 0.734 ± 0.021 | 0.763 ± 0.013 | 0.658 ± 0.019 | 0.7855 ± 0.0022 | 0.652 ± 0.03 | 0.67 ± 0.027 | 0.7491 ± 0.0035 |
| GWLRHGWWRTVG | 0.313 ± 0.0015 | 0.605 ± 0.024 | 0.709 ± 0.0069 | 0.658 ± 0.024 | 0.734 ± 0.011 | 0.152 ± 0.0082 | 0.17 ± 0.018 | 0.4286 ± 0.00089 |
| GWMLVVWCGVFG | 0.275 ± 0.03 | 0.174 ± 0.01 | 0.235 ± 0.0027 | 0.216 ± 0.035 | 0.338 ± 0.011 | 0.192 ± 0.011 | 0.195 ± 0.031 | 0.295 ± 0.0069 |
| GYAFPPPHRVRT | 0.741 ± 0.025 | 0.654 ± 0.073 | 0.7419 ± 0.0073 | 0.669 ± 0.023 | 0.7288 ± 0.0051 | 0.6865 ± 0.0043 | 0.652 ± 0.029 | 0.702 ± 0.016 |
| GYLVFTLRWLRG | 0.461 ± 0.06 | 0.384 ± 0.038 | 0.491 ± 0.035 | 0.343 ± 0.027 | 0.507 ± 0.016 | 0.271 ± 0.026 | 0.305 ± 0.02 | 0.461 ± 0.0085 |
| GYTVYARRLIMC | 0.146 ± 0.015 | 0.215 ± 0.0094 | 0.265 ± 0.008 | 0.236 ± 0.024 | 0.382 ± 0.021 | 0.0746 ± 0.0026 | 0.0799 ± 0.0087 | 0.0893 ± 0.024 |
| GYVVYRRYILIR | 0.141 ± 0.0084 | 0.0341 ± 0.0027 | 0.0546 ± 0.03 | 0.111 ± 0.017 | 0.131 ± 0.026 | 0.219 ± 0.0094 | 0.0783 ± 0.012 | 0.0969 ± 0.011 |
| HCSRMIIIFLFL | 0.371 ± 0.035 | 0.312 ± 0.044 | 0.425 ± 0.042 | 0.276 ± 0.045 | 0.488 ± 0.039 | 0.303 ± 0.061 | 0.282 ± 0.013 | 0.514 ± 0.038 |
| HLYITGIIRKIT | 0.179 ± 0.036 | 0.519 ± 0.027 | 0.619 ± 0.11 | 0.668 ± 0.054 | 0.695 ± 0.016 | 0.0875 ± 0.0033 | 0.165 ± 0.024 | 0.126 ± 0.029 |
| HMVSWTVVRSLM | 0.316 ± 0.011 | 0.652 ± 0.065 | 0.7014 ± 0.004 | 0.603 ± 0.019 | 0.76 ± 0.026 | 0.138 ± 0.029 | 0.144 ± 0.0044 | 0.2582 ± 0.00046 |
| HYTSFAVPPLVY | 0.481 ± 0.024 | 0.524 ± 0.037 | 0.476 ± 0.025 | 0.366 ± 0.018 | 0.5275 ± 0.0048 | 0.3404 ± 0.0026 | 0.376 ± 0.018 | 0.487 ± 0.011 |
| IFFFQFLWFCLS | 0.315 ± 0.038 | 0.296 ± 0.0037 | 0.295 ± 0.0059 | 0.305 ± 0.036 | 0.4186 ± 0.0012 | 0.243 ± 0.0098 | 0.206 ± 0.028 | 0.339 ± 0.015 |
| IFRLVRVVRSSS | 0.386 ± 0.031 | 0.669 ± 0.015 | 0.688 ± 0.037 | 0.6 ± 0.025 | 0.714 ± 0.05 | 0.19 ± 0.036 | 0.236 ± 0.03 | 0.476 ± 0.011 |
| IIAVFRCCLRVY | 0.168 ± 0.076 | 0.052 ± 0.0087 | 0.12 ± 0.022 | 0.131 ± 0.034 | 0.216 ± 0.003 | 0.061 ± 0.02 | 0.0911 ± 0.025 | 0.152 ± 0.012 |
| IIFWMWVIIRVY | 0.139 ± 0.044 | 0.121 ± 0.11 | 0.0686 ± 0.034 | 0.142 ± 0.04 | 0.205 ± 0.0091 | 0.114 ± 0.04 | 0.108 ± 0.039 | 0.116 ± 0.092 |
| IIPAFPFAFLAF | 0.489 ± 0.0067 | 0.527 ± 0.0088 | 0.526 ± 0.018 | 0.415 ± 0.026 | 0.565 ± 0.0086 | 0.432 ± 0.0046 | 0.407 ± 0.017 | 0.541 ± 0.0073 |
| IISPLRLLPLFF | 0.388 ± 0.017 | 0.634 ± 0.018 | 0.73 ± 0.013 | 0.61 ± 0.039 | 0.724 ± 0.0088 | 0.271 ± 0.011 | 0.298 ± 0.03 | 0.515 ± 0.0086 |
| IKERRKVSMKVY | 0.474 ± 0.022 | 0.639 ± 0.023 | 0.688 ± 0.02 | 0.519 ± 0.035 | 0.677 ± 0.018 | 0.321 ± 0.009 | 0.373 ± 0.015 | 0.557 ± 0.032 |
